T1: Mcl-1, Q07820
T1 chain: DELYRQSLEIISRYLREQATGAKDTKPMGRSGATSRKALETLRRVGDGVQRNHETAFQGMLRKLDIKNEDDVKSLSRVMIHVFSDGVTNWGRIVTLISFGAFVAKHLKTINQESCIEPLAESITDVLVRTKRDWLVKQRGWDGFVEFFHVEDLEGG


target: Bcl-xL, Q07817; test: peptide SPOT array, c-Myc-tagged receptor at 1 uM or 100 nM, anti-c-Myc-Cy3
Sequence (Q07817 1-209): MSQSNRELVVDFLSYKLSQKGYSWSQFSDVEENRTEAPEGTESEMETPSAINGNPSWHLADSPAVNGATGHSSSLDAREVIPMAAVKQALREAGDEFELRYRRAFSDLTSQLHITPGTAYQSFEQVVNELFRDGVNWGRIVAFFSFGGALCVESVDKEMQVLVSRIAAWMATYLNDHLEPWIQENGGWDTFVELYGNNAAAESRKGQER

Row | SPOT signal as a fraction of Bim BH3's signal on the same receptor and array | Binder
1 | 0.03 | DLQIYQPGRRLQTVSKESASRVEEEE [SMG6]
2 | 1.39 | YGRLRPRARSLSKASTAINWLTKKFL [MYO15A]
3 | 0.58 | KKRADSVANKLGSFGKTLGSKLKKNM [OTUD7B]
4 | 0.03 | GTKSQLLAKRLLDLSNEGFTNWEFMT [PCSK6]
5 | 0.03 | RVIPHDGAEDLWIQAQELVRNMKENL [PLB1]
6 | 0.85 | RQAFYLHTTKLTRILRRLCREILRPW
7 | 0.06 | GSGPSKTSRVLQNVAFSVQKEVEKNL [BCL2A1]
8 | 0.09 | PKELEGYIQKLQNAAERLATENRKLR
9 | 0.08 | FNIPREAAERLRILAQSNNQQLRDLG [NCOA6]
10 | 0.21 | AYRGRGIAKHDAKAALDFVVEEDLKA [C17orf103]
11 | 0.47 | NRKGEKNGKGDRHFSMKVCEKVQRKG [TFDP1]
12 | 1.26 | RQAFYLHTTKDTRIARRLCREILRPW
13 | 0.03 | LANVTEDAKRLIAVADSVLTKVVGDL [RNF213]
14 | 0.92 | EVRSSQFARKDWRSSRRISQVSSGET [NBEAL2]
15 | 0.08 | KYDPSKYCHNDKKIGEDFSNTIPISS [NOL8]
16 | 0.05 | REHIKLLIQKLTDVAEECQNNQLKKL [PLCB1]
17 | 0.44 | LREVRESIRFLRQVLRDWVQRRREAL [CYP46A1]
18 | 0.09 | PEDLQDVGWFLHKLLQQILKKEKEKK [TLR5]
19 | 0.18 | FERVEQMCIQIKEVLDRVNYIKRSLQ [TRPM7]
20 | 0.35 | WLVLRRLVTLITQLAKELSNKGVLKT [BCAP29]
21 | 0.03 | TDENKKVGLALKDLLKQYSDRLECCE [NUB1]
22 | 0.54 | CLSCDLCGCRLGEVLRRLYYKLGRKL [LMO2]
23 | 0.03 | SDNLFKWVGTIHGAAGTVYEDLRYKL [UBE2C]
24 | 0.22 | RAELTGLARRLADRARELQETNLRAV [RIMBP3C]
25 | 0.02 | QFEIEKSCELLFQMAESVDYDYDVQD [DHX40]
26 | 0.11 | KSRLVQQSKALKELLDELQERCQRPA [TRIM58]
27 | 0.11 | GSIAKKFSAALQKLSSHLQPRVPEHS [ANO2]
28 | 0.19 | EVLAGPLAQRLSHILEDVGRLVKKSR [ARHGAP4]
29 | 0.02 | RYPILENPEIDRKTADDFLNRIALTD [CCNH]

Target: T1, Mcl-1, Q07820
Test: as above

Row | SPOT signal as a fraction of Bim BH3's signal on the same receptor and array | Binder
30 | 0.1 | PESTKRSALCIFKIARKLLFLFRIKE [UBE3B]
31 | 0.02 | TTLEMEFAKGLQKIAHNCRQSVMQEP [HMHA1]
32 | 0.01 | EGAKSETAEELKKVAQELEEKLNILN [APOL1]
33 | 0.02 | RGLEQHVALYLEHGADVGLRTSQGET [ASB16]
34 | 0.08 | AEIEMDYSRNLEKLAERFLAKTRSTK [SRGAP2]
35 | 0.07 | SGKLKEMVPIIAQYGDVLVRNLRREA [CYP3A4]
36 | 0.2 | AVLSPQSADNLKQVARSLFLLGKHKA [BBS4]
37 | 0.8 | RLRSEYVAQCLGRAAQGGCPRARCRR [GFRA4]
38 | 0.02 | QDTEQFVATVLQAASRDLDWEVRAQG [C7orf27]
39 | 0.07 | AASDFRTSVVLNHLAEKWFPGQRERA [LONRF1]
40 | 0.07 | EDLQQVIASVLRNLSWRADVNSKKTL [APC]
41 | 0.02 | DIARSTLAKIIEDLGVHFLLYVLKEL [UTP20]
42 | 0.05 | PSTYLAVAEELADVSGKYFDGLKQKA [RDH13]
43 | 0.02 | RLKVMPFAGVLEHIGGIMEIQLEENP [SLITRK2]
44 | 0.28 | GPEHPAVAATLNNLAVLYGKRGRYRE [KLC3]
45 | 0.02 | DLDSNQAAMVLIRLSHLLSEKPEDKG [TBRG4]
46 | 0.03 | RDHDEFIINLIRGLGGNLNMKSRLEF
47 | 0.08 | YYSSRQYASALKHIAEIIERGIRQHP [TTC30A]
48 | 0.02 | TGKDRLTAGLINIVSFDLLSKLEKQL [SMARCAL1]
49 | 0.02 | DRFEGYCIDLLKELAHILGFSYEIRL [GRIK3]
50 | 0.14 | MKLRNLFTKFIRKFGFELVKRLLPEE [RRP12]
51 | 0.01 | PEVRKVLADVLQDIANDNISSADYTQ [ARSG]
52 | 0.19 | VLLLSSSVNSLRKAAHEALQDFQKYK [DNAH8]
53 | 0.57 | HQQLTRAARLISETAQRVHTIGQKQK [C9orf100]

— paper PMC4072508, “Genome-Wide Prediction and Validation of Peptides That Bind Human Prosurvival Bcl-2 Proteins” (PLoS Computational Biology, 2014)
